From patent US12122830 (ABL BIO, dated 2024)

Key:
[1] = biological target: T1, recombinant ROR1-His (Sino Biological, 13968-H08H) (human, UniProt Q01973 30-406); experiment: BLI (Octet), ROR1-His loaded on biosensor, IgG in solution, 1:1 fitting
T1 construct: extracellular domain; Bought; also called human ROR1 antigen; not shown: His tag
Procedure: A 96 well black microplate (greiner bio one) in a biosensor tray case was installed, and 200 µl of 10×KB or D.W was put in 8 wells each. 8 sensors, Anti Penta His biosensors or AR2G biosensors (ForteBio, USA), were placed for 10 min for hydration. 600 µl of Analytic samples were diluted 2 folds or 3 folds to desired concentrations. It was diluted using 1×KB or 10×KB to reach a concentration of 30~0.021 nM. For antigen fixation, 1 µg/mL of a recombinant ROR1-His (Sino Biological, 13968-H08H) was diluted with 10×KB or Sodium Acetate pH5 buffer. For fixation, threshold was set to be 0.3 nmat the loading step. The experiment was performed for 3 min~10 min of association and for 20 min of dissociation. The prepared buffer was put into a new 96 well black microplate in accordance with octet program template in order. 10×KB or D.W 200 µl used as Baseline1 was put. 200 µl of the antigen ROR1-His protein (1 µg/mL) was loaded. 10×KB or D.W 200 µl used as Baseline2 was put. 200 µl of 10×KB buffer or 1×KB corresponding the diluted antibody in 30~0.021 nM, Reference blank was put into each well. The temperature of the experimental plate was fixed at 30° C. After placing all samples, the device was activated. After the experiment was finished, the result was uploaded on Octet Analysis 9.0 software, and then KD value was calculated using 1:1 fitting, and the result was described in the following Table 6. […]

[2] = biological target: T2, human ROR1 expressed on the cell surface (human, UniProt Q01973 30-937); experiment: flow cytometry on A549 cells (lung cancer), C2E3 IgG at 10 µg/mL, MFI of anti-ROR1 / MFI of 2nd Ab
T2 construct: whole, on cells; On JeKo-1 and Mino cells and other cancer cell lines (endogenous) and on transfected CHO and MC38 cells; also called cell surface-expressed ROR1; CHO-human ROR1
Procedure: (§1) For the cell lines, the binding to ROR1 was analyzed with FACS (FACSCalibur, BD Biosciences) by using the anti-ROR1 antibody of the present invention.
(§2) Specifically, after disassociating each cell line and washing in PBS, the number of cells was counted and set as 2 ×10^5 cells/200 µl PBS, and then the clone C2E3 among ROR1 monoclonal antibodies prepared in Example 3 was treated in 10 µg/mL, and it was reacted at 4° C. for 1 hour. After reaction, cells were washed in PBS, and then the FITC-labeled constant region (Fc)-specific antibody (Goat anti-human IgG FITC conjugate, Fc specific, Sigma, F9512, concentration: 2.0 mg/ml) was suspended in 2 µl/1 ×10^5 cells/200 µl PBS, and it was reacted at 4° C. for 1 hour. After reaction, cells were washed in PBS, it was analyzed using a FACSCalibur device. The negative control group was treated only with the FITC-labeled constant region (Fc)-specific antibody. To compare the expression degrees of ROR1 among the cancer cell lines, the value of the result for the peak shift in the experimental group treated with the ROR1 monoclonal antibody (C2E3) of the present invention was divided by the result for the peak shift in the control group (Mean Fluorescence Intensity Ratio MFI Ratio: MFI of anti-ROR1/MFI of 2nd Ab).

[3] = biological target: T2, human ROR1 expressed on the cell surface; experiment: flow cytometry on BT20 cells (breast cancer), C2E3 IgG at 10 µg/mL, MFI of anti-ROR1 / MFI of 2nd Ab
Procedure: as §1, §2

[4] = biological target: T2, human ROR1 expressed on the cell surface; experiment: flow cytometry on MKN-28 cells (gastric cancer), C2E3 IgG at 10 µg/mL, MFI of anti-ROR1 / MFI of 2nd Ab
Procedure: as §1, §2

[5] = biological target: T2, human ROR1 expressed on the cell surface; experiment: flow cytometry on NCI-H1975 cells (lung cancer), C2E3 IgG at 10 µg/mL, MFI of anti-ROR1 / MFI of 2nd Ab
Procedure: as §1, §2

[6] = biological target: T3, mouse ROR1 expressed on the cell surface (CHO-mouse ROR1) (mouse, UniProt Q9Z139 30-937); experiment: flow cytometry on CHO cells transiently overexpressing mouse ROR1, FITC anti-human Fc detection, MFI ratio to 2nd Ab
T3 construct: whole, on cells; Temporarily transfected CHO cells
Procedure: For this experiment, the degree of binding of the anti-ROR1 antibody and ROR1 was measured by using FACSCalibur (BD Biosciences) device with the cell lines as follows, the cell lines artificially overexpressing the ROR1 protein by transfecting an ROR1 gene temporarily (CHO-human ROR1, CHO-human ROR2, CHO-mouse ROR1) or stably (MC38-human ROR1) (FIG. 5 and FIG. 7, respectively) or the cell lines expressing ROR1 (JeKo-1, Mino) (FIG. 6) or a cell line not expressing ROR1 (MCF7) (FIG. 6). […] JeKo-1, Mino, CHO-human ROR1, CHO-mouse ROR1 and MC38-human ROR1 are all cell lines expressing human ROR1 or mouse ROR1.
Specifically, after disassociating each cell line and washing in PBS, the number of cells was counted and set as 2×10^5 cells/200 µl PBS, and then each ROR1 monoclonal antibody in Example 3 was prepared in 10 µg/mL or as 5 fold-diluted from 10 µg/mL, and was reacted at 4° C. for 1 hour. After reaction, cells were washed in PBS and then the FITC-labeled constant region (Fc)-specific antibody (Goat anti-human IgG FITC conjugate, Fc specific, Sigma, F9512, concentration: 2.0 mg/ml) was suspended in 2 µl/1×10^5 cells/200 µl PBS, and it was reacted at 4° C. for 1 hours. The confirmation of expression degree of human ROR1, human ROR2 and mouse ROR1 that were temporarily overexpressed was analyzed by using a commercially available antibody for FACS analysis (anti-ROR1: R&D Systems, FAB2000G, anti-ROR2: R&D, FAB20641P). After reaction, cells were washed in PBS and decoded by using a FACSCalibur device. The negative control group (2nd Ab) was treated only with the FITC-labeled constant region (Fc)-specific antibody. The result for the peak shift in the experimental group treated with each ROR1 monoclonal antibody was compared to the result for the shift in the control group (Mean Fluorescence Intensity Ratio, MFI Ratio: MFI of anti-ROR1/MFI of 2nd Ab).

T2 sequence (Q01973 30-937): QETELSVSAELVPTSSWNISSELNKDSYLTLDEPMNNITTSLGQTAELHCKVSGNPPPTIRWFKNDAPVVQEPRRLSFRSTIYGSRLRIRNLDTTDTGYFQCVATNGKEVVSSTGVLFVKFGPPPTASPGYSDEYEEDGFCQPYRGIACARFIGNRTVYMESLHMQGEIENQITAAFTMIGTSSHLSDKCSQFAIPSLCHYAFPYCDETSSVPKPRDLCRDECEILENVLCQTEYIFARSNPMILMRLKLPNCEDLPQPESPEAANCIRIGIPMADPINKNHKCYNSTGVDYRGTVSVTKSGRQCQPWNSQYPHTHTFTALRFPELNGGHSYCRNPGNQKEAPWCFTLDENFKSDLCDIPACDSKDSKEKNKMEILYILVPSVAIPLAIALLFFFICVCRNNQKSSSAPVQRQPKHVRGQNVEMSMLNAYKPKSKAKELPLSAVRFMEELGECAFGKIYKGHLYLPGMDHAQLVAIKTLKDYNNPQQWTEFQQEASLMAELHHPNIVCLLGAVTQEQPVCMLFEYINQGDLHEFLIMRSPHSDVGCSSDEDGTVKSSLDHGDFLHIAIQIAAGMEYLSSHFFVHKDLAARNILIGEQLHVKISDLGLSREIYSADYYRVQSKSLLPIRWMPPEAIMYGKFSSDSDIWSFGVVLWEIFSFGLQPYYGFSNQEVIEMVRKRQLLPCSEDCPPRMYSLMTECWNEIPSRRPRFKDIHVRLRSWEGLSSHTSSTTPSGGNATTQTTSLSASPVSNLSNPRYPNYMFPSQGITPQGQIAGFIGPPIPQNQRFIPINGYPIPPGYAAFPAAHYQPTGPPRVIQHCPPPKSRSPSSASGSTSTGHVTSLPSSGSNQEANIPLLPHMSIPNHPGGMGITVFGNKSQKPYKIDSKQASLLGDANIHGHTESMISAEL
T1 sequence (Q01973 30-406): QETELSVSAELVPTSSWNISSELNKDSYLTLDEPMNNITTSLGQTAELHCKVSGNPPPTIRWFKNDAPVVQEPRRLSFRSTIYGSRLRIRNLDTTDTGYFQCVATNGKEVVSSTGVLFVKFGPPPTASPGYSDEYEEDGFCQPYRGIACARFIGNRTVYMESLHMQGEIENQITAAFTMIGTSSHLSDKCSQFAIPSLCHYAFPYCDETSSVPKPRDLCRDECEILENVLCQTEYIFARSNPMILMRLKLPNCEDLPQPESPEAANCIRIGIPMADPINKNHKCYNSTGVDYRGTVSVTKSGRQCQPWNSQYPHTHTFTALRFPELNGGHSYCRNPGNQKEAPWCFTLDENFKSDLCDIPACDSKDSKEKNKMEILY
T3 sequence (Q9Z139 30-937): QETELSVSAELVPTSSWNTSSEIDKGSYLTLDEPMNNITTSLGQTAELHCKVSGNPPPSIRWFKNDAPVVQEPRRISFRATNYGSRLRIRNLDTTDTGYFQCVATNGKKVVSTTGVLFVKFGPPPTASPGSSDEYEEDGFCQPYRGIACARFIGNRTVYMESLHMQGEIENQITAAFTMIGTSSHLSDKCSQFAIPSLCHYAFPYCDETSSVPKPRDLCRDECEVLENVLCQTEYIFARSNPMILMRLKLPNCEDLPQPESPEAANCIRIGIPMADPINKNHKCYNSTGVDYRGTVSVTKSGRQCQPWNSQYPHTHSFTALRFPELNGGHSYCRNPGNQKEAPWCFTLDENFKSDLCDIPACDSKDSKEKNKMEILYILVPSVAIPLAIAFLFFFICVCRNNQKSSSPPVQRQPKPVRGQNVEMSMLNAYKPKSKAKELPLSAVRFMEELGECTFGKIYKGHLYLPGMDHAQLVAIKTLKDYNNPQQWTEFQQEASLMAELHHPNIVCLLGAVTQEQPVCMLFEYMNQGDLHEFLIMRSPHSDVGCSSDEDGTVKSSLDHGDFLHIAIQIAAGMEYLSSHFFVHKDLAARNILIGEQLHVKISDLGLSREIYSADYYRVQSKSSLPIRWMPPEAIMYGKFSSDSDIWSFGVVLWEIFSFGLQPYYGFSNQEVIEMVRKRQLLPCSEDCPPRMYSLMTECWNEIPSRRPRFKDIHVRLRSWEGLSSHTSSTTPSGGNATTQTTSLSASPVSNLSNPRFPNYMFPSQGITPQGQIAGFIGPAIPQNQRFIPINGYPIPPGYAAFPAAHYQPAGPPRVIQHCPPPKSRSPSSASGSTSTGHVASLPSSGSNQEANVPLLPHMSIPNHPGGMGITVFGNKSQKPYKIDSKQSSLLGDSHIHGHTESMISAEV

Kd [1]: 424 pM
koff [1]: 0.00231 s⁻¹
Mean Fold Ratio [2]: 6
Mean Fold Ratio [3]: 3
Mean Fold Ratio [4]: 4.9
Mean Fold Ratio [5]: 4.2
binding result [6]: binds
B1: C2E3 anti-ROR1 IgG antibody (antibody, V domains shown)
VH: EVQLLESGGGLVQPGGSLRLSCAASGFTFSNYAMSWVRQAPGKGLEWVSSISHNSGSTYYADSVKGRFTISRDNSKNTLYLQMNSLRAEDTAVYYCAKFISARKSLGRSYSNGMDVWGQGTLVTVSS
VL: QSVLTQPPSASGTPGQRVTISCTGSSSNIGSNDVTWYQQLPGTAPKLLIYADSKRPSGVPDRFSGSKSGTSASLAISGLRSEDEADYYCGTWDYSLSGYVFGGGTKLTVLG
